The values that follow are results of earlier work, collected in US20060166927A1, “Compounds that bind to the interferon-gamma, preparation method thereof and medicaments containing same” (priority 2002, published 2006).

B1: γ-IFN: polypeptide comprising, for example, 143 amino acids in humans, which is part of the cytokine family (protein, UniProt P01579 24-161, looked up)
Interferon gamma: QDPYVKEAENLKKYFNAGHSDVADNGTLFLGILKNWKEESDRKIMQSQIVSFYFKLFKNFKDDQSIQKSVETIKEDMNVKFFNSNKKKRDDFEKLTNYSVTDLNVQRKAIHELIQVMAELSPAAKTGKRKRSQMLFRG
Turning to B1, where the note is “at the surface of the vascular endothelium”, the “proportion of injected γ-IFN rapidly bound by molecules of heparin/heparan sulphate type” value was “approximately 90%”. Moreover, the “cytokine disappearing from the circulating blood” value (intravenous injection, during the first 5 to 10 minutes) was 90%. Moreover, the half-life time (intravenous injection, first phase of biexponential elimination) is about 1 min. In addition, the inactivation in vivo entry (γ-IFN alone) is “rapidly inactivated by proteolytic degradation of its C-terminal end”.
